# Results from the supplement of paper PMC9112550, “Optimization of the antimicrobial peptide Bac7 by deep mutational scanning” (BMC Biology, 2022).
# Tested on: Escherichia coli TOP10
# Test: shrunken log2 fold change of peptide-encoding DNA abundance (4.5 h post-induction vs induction); higher = less antimicrobial activity (less host growth inhibition)
# Conditions: time post-induction: 4.5 h; library: site-saturation at positions 5, 18, 19, 20
# 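Note: peptides expressed intracellularly from a pBAD plasmid library in pooled LB shake-flask culture, induced with 0.3% L-arabinose, DNA abundance read by NGS, three biological replicates, DESeq2 with apeglm shrinkage.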
row,Sequence,shrunken log2 fold change
1,RRIRLRPPRLPRPRPRPNHEPRP,-0.0961
2,RRIRARPPRLPRPRPRPEGTPRP,0.251
3,RRIRCRPPRLPRPRPRPCPAPRP,-0.178
4,RRIRMRPPRLPRPRPRPGLSPRP,0.795
5,RRIRIRPPRLPRPRPRPDVWPRP,-0.109
6,RRIRWRPPRLPRPRPRPEFAPRP,1.02
7,RRIRWRPPRLPRPRPRPYVFPRP,-0.142
8,RRIRIRPPRLPRPRPRPVYPPRP,-0.233
9,RRIRNRPPRLPRPRPRPRKFPRP,-0.101
10,RRIRQRPPRLPRPRPRPFTIPRP,0.0944
11,RRIRYRPPRLPRPRPRPIEDPRP,-0.274
12,RRIRKRPPRLPRPRPRPYDKPRP,-0.124
13,RRIRCRPPRLPRPRPRPRYKPRP,-0.141
14,RRIRTRPPRLPRPRPRPNDSPRP,-0.00242
15,RRIRRRPPRLPRPRPRPGTMPRP,0.186
16,RRIRNRPPRLPRPRPRPSNRPRP,-0.138
17,RRIRRRPPRLPRPRPRPQPLPRP,0.509
18,RRIRNRPPRLPRPRPRPSQAPRP,0.0297
19,RRIRSRPPRLPRPRPRPPRAPRP,0.567
20,RRIRKRPPRLPRPRPRPHPSPRP,0.163
21,RRIRLRPPRLPRPRPRPHMSPRP,-0.325
22,RRIRPRPPRLPRPRPRPLQGPRP,0.13

row,Sequence,shrunken log2 fold change
1,RRIRKRPPRLPRPRPRPVPGPRP,0.515
2,RRIRVRPPRLPRPRPRPCKHPRP,-0.483
3,RRIRRRPPRLPRPRPRPQWAPRP,0.0248
4,RRIRTRPPRLPRPRPRPSEDPRP,-0.494
5,RRIRYRPPRLPRPRPRPGGSPRP,-0.017
6,RRIRSRPPRLPRPRPRPMTLPRP,-0.103
7,RRIRSRPPRLPRPRPRPIYKPRP,-0.243
8,RRIRPRPPRLPRPRPRPCMLPRP,-0.663
9,RRIRTRPPRLPRPRPRPYSKPRP,-0.565
10,RRIRIRPPRLPRPRPRPHWNPRP,-0.758
11,RRIRGRPPRLPRPRPRPHYMPRP,0.00569
12,RRIRRRPPRLPRPRPRPQCLPRP,0.066
13,RRIRFRPPRLPRPRPRPMEEPRP,0.279
14,RRIRIRPPRLPRPRPRPNVFPRP,-0.27
15,RRIRERPPRLPRPRPRPRIPPRP,-0.269
16,RRIRSRPPRLPRPRPRPTLEPRP,0.474
17,RRIRYRPPRLPRPRPRPEIEPRP,-0.0892
18,RRIRKRPPRLPRPRPRPCCKPRP,0.099
19,RRIRNRPPRLPRPRPRPVMVPRP,-0.0209
20,RRIRYRPPRLPRPRPRPMVNPRP,-0.0376
21,RRIRMRPPRLPRPRPRPQQTPRP,1.14
22,RRIRQRPPRLPRPRPRPIPNPRP,-0.0226

row,Sequence,shrunken log2 fold change
1,RRIRRRPPRLPRPRPRPCYNPRP,-0.41
2,RRIRCRPPRLPRPRPRPINAPRP,0.695
3,RRIRERPPRLPRPRPRPTYAPRP,-0.0017
4,RRIRRRPPRLPRPRPRPCKRPRP,0.0349
5,RRIRNRPPRLPRPRPRPMDHPRP,0.0184
6,RRIRQRPPRLPRPRPRPWFCPRP,-0.282
7,RRIRSRPPRLPRPRPRPPAMPRP,0.344
8,RRIRKRPPRLPRPRPRPLFWPRP,0.593
9,RRIRSRPPRLPRPRPRPTEEPRP,0.234
10,RRIRTRPPRLPRPRPRPYKPPRP,-0.551
11,RRIRYRPPRLPRPRPRPVEQPRP,-0.191
12,RRIRLRPPRLPRPRPRPMCKPRP,0.0258
13,RRIRTRPPRLPRPRPRPGVVPRP,0.0177
14,RRIRDRPPRLPRPRPRPMGGPRP,0.0169
15,RRIRQRPPRLPRPRPRPEKVPRP,-0.155
16,RRIRERPPRLPRPRPRPQQRPRP,0.0285
17,RRIRPRPPRLPRPRPRPWAHPRP,-0.00675
18,RRIRSRPPRLPRPRPRPSGNPRP,-0.571
19,RRIRRRPPRLPRPRPRPQIRPRP,0.178
20,RRIRSRPPRLPRPRPRPYRHPRP,-0.542
21,RRIRSRPPRLPRPRPRPLIPPRP,-0.324
22,RRIRPRPPRLPRPRPRPPYMPRP,-0.288

row,Sequence,shrunken log2 fold change
1,RRIRARPPRLPRPRPRPEVQPRP,0.76
2,RRIRDRPPRLPRPRPRPCPLPRP,-0.0882
3,RRIRSRPPRLPRPRPRPFCLPRP,-0.302
4,RRIRCRPPRLPRPRPRPRPSPRP,0.695
5,RRIRYRPPRLPRPRPRPPLMPRP,-0.293
6,RRIRTRPPRLPRPRPRPRLHPRP,0.0546
7,RRIRARPPRLPRPRPRPHLIPRP,-0.0757
8,RRIRNRPPRLPRPRPRPMSQPRP,-0.0161
9,RRIRYRPPRLPRPRPRPRPTPRP,0.363
10,RRIRSRPPRLPRPRPRPLAQPRP,0.261
11,RRIRGRPPRLPRPRPRPTNMPRP,0.316
12,RRIRDRPPRLPRPRPRPDNMPRP,0.0341
13,RRIRSRPPRLPRPRPRPIMMPRP,-0.0828
14,RRIRYRPPRLPRPRPRPLAGPRP,0.0192
15,RRIRARPPRLPRPRPRPNDAPRP,-0.0891
16,RRIRRRPPRLPRPRPRPDYCPRP,-0.214
17,RRIRKRPPRLPRPRPRPIYAPRP,0.144
18,RRIRFRPPRLPRPRPRPNRCPRP,-0.717
19,RRIRGRPPRLPRPRPRPVEWPRP,0.0602
20,RRIRFRPPRLPRPRPRPRDIPRP,-0.11
21,RRIRVRPPRLPRPRPRPQVQPRP,-0.208
22,RRIRHRPPRLPRPRPRPCYCPRP,-0.617

row,Sequence,shrunken log2 fold change
1,RRIRIRPPRLPRPRPRPWKMPRP,-1.13
2,RRIRNRPPRLPRPRPRPNPPPRP,0.143
3,RRIRPRPPRLPRPRPRPLDTPRP,1
4,RRIRVRPPRLPRPRPRPMTTPRP,0.0377
5,RRIRCRPPRLPRPRPRPWSLPRP,-1.5
6,RRIRCRPPRLPRPRPRPYYSPRP,-0.437
7,RRIRRRPPRLPRPRPRPRHSPRP,0.226
8,RRIRGRPPRLPRPRPRPSIEPRP,0.36
9,RRIRNRPPRLPRPRPRPKCQPRP,0.0753
10,RRIRERPPRLPRPRPRPWQQPRP,0.015
11,RRIRQRPPRLPRPRPRPSTLPRP,-0.319
12,RRIRHRPPRLPRPRPRPNHQPRP,-1.24
13,RRIRTRPPRLPRPRPRPPAMPRP,0.294
14,RRIRSRPPRLPRPRPRPPRQPRP,0.389
15,RRIRIRPPRLPRPRPRPKFQPRP,-0.327
16,RRIRTRPPRLPRPRPRPLRCPRP,0.108
17,RRIRVRPPRLPRPRPRPMNYPRP,-0.128
18,RRIRSRPPRLPRPRPRPPFCPRP,0.135
19,RRIRARPPRLPRPRPRPKMLPRP,0.332
20,RRIRERPPRLPRPRPRPMWFPRP,-0.159
21,RRIRTRPPRLPRPRPRPWPEPRP,0.0147
